Results reported in article PMC10330758 (DNA repair, 2023).

Target: N-terminally his-tagged human DHX9 (human, UniProt Q08211 1-1270)
Assay: pull-down

Chain of N-terminally his-tagged human DHX9 (Q08211 whole entry): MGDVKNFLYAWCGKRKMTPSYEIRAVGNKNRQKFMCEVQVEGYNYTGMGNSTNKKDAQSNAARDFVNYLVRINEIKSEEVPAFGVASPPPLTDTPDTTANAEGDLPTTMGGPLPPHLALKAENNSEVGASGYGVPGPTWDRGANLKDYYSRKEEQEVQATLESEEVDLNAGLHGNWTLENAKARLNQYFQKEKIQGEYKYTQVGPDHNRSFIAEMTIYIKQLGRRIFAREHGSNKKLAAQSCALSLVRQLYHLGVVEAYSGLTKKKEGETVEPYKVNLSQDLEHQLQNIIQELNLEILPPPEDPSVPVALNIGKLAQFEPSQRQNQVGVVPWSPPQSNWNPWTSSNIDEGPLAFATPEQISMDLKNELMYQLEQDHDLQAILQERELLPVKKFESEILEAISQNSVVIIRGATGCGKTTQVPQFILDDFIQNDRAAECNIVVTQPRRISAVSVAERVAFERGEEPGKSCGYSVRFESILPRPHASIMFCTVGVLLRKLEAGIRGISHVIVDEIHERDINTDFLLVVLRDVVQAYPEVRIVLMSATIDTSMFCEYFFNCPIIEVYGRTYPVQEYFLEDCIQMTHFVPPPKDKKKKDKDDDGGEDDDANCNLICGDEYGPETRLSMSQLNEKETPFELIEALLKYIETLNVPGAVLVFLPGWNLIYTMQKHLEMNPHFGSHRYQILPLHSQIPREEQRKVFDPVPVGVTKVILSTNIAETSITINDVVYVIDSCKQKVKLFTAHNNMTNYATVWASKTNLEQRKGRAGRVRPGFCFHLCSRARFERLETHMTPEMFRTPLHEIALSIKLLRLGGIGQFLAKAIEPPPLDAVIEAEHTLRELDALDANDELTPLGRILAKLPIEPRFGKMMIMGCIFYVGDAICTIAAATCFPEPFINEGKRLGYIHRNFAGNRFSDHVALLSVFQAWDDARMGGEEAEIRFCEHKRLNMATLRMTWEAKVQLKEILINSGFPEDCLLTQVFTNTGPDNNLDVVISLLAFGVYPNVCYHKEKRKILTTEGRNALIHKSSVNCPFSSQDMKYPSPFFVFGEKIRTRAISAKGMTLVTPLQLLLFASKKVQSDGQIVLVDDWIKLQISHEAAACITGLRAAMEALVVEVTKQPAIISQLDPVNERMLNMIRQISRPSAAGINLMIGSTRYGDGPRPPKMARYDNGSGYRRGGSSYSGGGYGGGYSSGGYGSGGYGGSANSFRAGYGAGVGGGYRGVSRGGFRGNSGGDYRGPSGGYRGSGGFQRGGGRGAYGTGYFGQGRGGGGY

binding result: binds
B1: Un-tagged p125 subunit of Pol δ (enzyme, human, UniProt P28340 1-1107, looked up)
chain: MDGKRRPGPGPGVPPKRARGGLWDDDDAPRPSQFEEDLALMEEMEAEHRLQEQEEEELQSVLEGVADGQVPPSAIDPRWLRPTPPALDPQTEPLIFQQLEIDHYVGPAQPVPGGPPPSRGSVPVLRAFGVTDEGFSVCCHIHGFAPYFYTPAPPGFGPEHMGDLQRELNLAISRDSRGGRELTGPAVLAVELCSRESMFGYHGHGPSPFLRITVALPRLVAPARRLLEQGIRVAGLGTPSFAPYEANVDFEIRFMVDTDIVGCNWLELPAGKYALRLKEKATQCQLEADVLWSDVVSHPPEGPWQRIAPLRVLSFDIECAGRKGIFPEPERDPVIQICSLGLRWGEPEPFLRLALTLRPCAPILGAKVQSYEKEEDLLQAWSTFIRIMDPDVITGYNIQNFDLPYLISRAQTLKVQTFPFLGRVAGLCSNIRDSSFQSKQTGRRDTKVVSMVGRVQMDMLQVLLREYKLRSYTLNAVSFHFLGEQKEDVQHSIITDLQNGNDQTRRRLAVYCLKDAYLPLRLLERLMVLVNAVEMARVTGVPLSYLLSRGQQVKVVSQLLRQAMHEGLLMPVVKSEGGEDYTGATVIEPLKGYYDVPIATLDFSSLYPSIMMAHNLCYTTLLRPGTAQKLGLTEDQFIRTPTGDEFVKTSVRKGLLPQILENLLSARKRAKAELAKETDPLRRQVLDGRQLALKVSANSVYGFTGAQVGKLPCLEISQSVTGFGRQMIEKTKQLVESKYTVENGYSTSAKVVYGDTDSVMCRFGVSSVAEAMALGREAADWVSGHFPSPIRLEFEKVYFPYLLISKKRYAGLLFSSRPDAHDRMDCKGLEAVRRDNCPLVANLVTASLRRLLIDRDPEGAVAHAQDVISDLLCNRIDISQLVITKELTRAASDYAGKQAHVELAERMRKRDPGSAPSLGDRVPYVIISAAKGVAAYMKSEDPLFVLEHSLPIDTQYYLEQQLAKPLLRIFEPILGEGRAEAVLLRGDHTRCKTVLTGKVGGLLAFAKRRNCCIGCRTVLSHQGAVCEFCQPRESELYQKEVSHLNALEERFSRLWTQCQRCQGSLHEDVICTSRDCPIFYMRKKVRKDLEDQEQLLRRFGPPGPEAW
